Laboratory results published in patent US20200123270A1 (Astellas, published 2020).
Values belong to the molecule of their own block, whether it stands above or below them.

What was measured:
[1] = target: human CEACAM5 (R&D Systems, Inc.), biotinylated (human) (UniProt P06731); experiment: SPR (Biacore T200), biotinylated human CEACAM5 captured on chip, Fab as analyte
[2] = target: human CEACAM5 (R&D Systems, Inc.), biotinylated (human) (UniProt P06731); experiment: SPR (Biacore T200), biotinylated human CEACAM5 captured on chip, Fab conjugate as analyte
[3] = target: T1, human CEACAM5 (R&D Systems, Inc.), biotinylated (human, UniProt P06731 35-685, biotinylated with Biotin Labeling Kit-NH2; sites not stated); experiment: SPR (Biacore T200), biotinylated human CEACAM5 captured on chip, Fab as analyte
T1 construct: Bought protein, biotinylated and captured on the sensor chip with the Biotin CAPture Kit
T1 sequence (looked up): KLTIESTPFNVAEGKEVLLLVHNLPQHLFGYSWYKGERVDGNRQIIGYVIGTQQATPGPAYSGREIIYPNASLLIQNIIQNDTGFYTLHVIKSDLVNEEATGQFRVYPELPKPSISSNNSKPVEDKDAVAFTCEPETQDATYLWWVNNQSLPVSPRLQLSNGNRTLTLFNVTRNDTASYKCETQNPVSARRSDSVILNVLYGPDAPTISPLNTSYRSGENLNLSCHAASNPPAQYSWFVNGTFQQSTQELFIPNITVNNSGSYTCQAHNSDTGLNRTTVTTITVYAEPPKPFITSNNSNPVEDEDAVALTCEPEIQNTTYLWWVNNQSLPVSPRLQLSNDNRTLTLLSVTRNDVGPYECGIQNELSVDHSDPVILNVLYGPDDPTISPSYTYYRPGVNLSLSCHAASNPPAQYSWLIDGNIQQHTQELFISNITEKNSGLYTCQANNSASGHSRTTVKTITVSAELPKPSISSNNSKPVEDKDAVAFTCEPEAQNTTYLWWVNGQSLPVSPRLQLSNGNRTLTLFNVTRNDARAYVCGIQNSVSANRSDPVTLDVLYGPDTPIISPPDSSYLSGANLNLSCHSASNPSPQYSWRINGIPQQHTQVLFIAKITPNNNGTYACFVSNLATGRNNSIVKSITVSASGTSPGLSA
Experimental: (§1) The analysis by SPR was conducted using Biacore T200 (GE Healthcare Japan Corp.). 10 μg/mL human CEACAM5 (R&D Systems, Inc.) biotinylated with Biotin CAPture Kit, Series S (GE Healthcare Japan Corp.) and Biotin Labeling Kit-NH₂ (Dojindo Laboratories) was added to the surface of the sensor chip at a flow rate of 5 μL/min for 2 minutes, and immobilized thereonto. PB009-01, PB009-02, M5A-Fab and M5A-Fab-DFO were diluted with HBS-EP+ solution (GE Healthcare Japan Corp.) into 6 series at a 2-fold ratio from 400 nM, and 100 μL each was added to the channel at a flow rate of 50 μL/min. In this measurement system, the dissociation constant (KD) of PB009-01, PB009-02, M5A-Fab or M5A-Fab-DFO for human CEACAM5 was calculated using data analysis software (BIA Evaluation, GE Healthcare Japan Corp.). As a result, as shown in the table given below, the binding activity of M5A-Fab was attenuated by the binding of DFO, whereas the binding activity of PB009-01 was not attenuated by the binding of DFO.

[4] = target: T1, human CEACAM5 (R&D Systems, Inc.), …; experiment: SPR (Biacore T200), biotinylated human CEACAM5 captured on chip, Fab conjugate as analyte
Experimental: In order to measure the detailed binding activity of PB009-02, analysis was conducted by SPR. In this Example, a Fab fragment of M5A (referred to as M5A-Fab), a humanized antibody of T84.66, was used as a comparative Fab fragment. M5A-Fab bound to DFO via a linker (referred to as M5A-Fab-DFO) was prepared by use of the method described in Example 2.
as §1

Kd [1]: 0.16 nM
Molecule: Fab fragment of M5A, a humanized antibody of T84.66

Kd [2]: 9.6 nM
Molecule: M5A-Fab bound to DFO via a linker

Kd [3]: 0.17 nM
B1: anti-human CEACAM5 antibody Fab fragment PB009-01 (Fab, V domains shown)
VH: EVQLVESGGGLVQPGGSLRLSCAASGFNIRDTYMHWVRQAPGKGLEWVARIDPANGNSRYVPKFQGRFTISADTSRNTAYLQMNSLRAEDTAVYYCAPFGYYVSDYAMAYWGQGTLVTVSS
VL: DIQLTQSPSSLSASVGDRVTITCRAGESVDIFGVGFLHWYQQKPGKAPKLLIYRASNLESGIPSRFSGSGSRTDFTLTISSLQPEDFATYYCQQTNEDPYTFGQGTKVEIKR
notes: Humanized and redesigned from mouse anti-human CEACAM5 antibody T84.66

Kd [4]: 0.61 nM
B2: PB009-02 (Fab fragment PB009-01 bound to DFO via a linker) (Fab, V domains shown)
VH: B1 VH
VL: B1 VL
modifications: DFO bound via linker -C(=S)-NH-(1,4-phenylene)-NH-C(=S)- (from p-SCN-Bn-DFO); at least 3 to 10 DFO ligands per Fab by mass spectrometry; modified residues and their split between the chains not …
notes: Chemical conjugate of PB009-01 with the chelator DFO
